The source of these data is patent publication US20180364256A1 (WAYNE STATE UNIVERSITY, published 2018).

T1: N-terminal fragment of human cardiac troponin T (HcTnT-N69) (human)
T1 construct: Recombinantly produced and purified; immobilised on microtiter plates in the ELISA; also the immunogen; also called N69 peptide; isolated (free, cleaved) HcTnT-N69 peptide
T1 peptide: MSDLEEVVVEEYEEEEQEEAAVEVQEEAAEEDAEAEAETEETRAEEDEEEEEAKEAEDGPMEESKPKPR

B1: mouse monoclonal antibody 1D6 (antibody, V domains shown)
VH: GPELVKPGASVKISCKTSGYTFTENTIHWVKQSHGKSLEWVGGINPNNGGTNYNQKFKGRAALTVDKSSSTAYMELRSLTSEDSAVYYCARSWDWFAYWGQGTLVTVSA
VL: LSLPVSLGDQASISCRSSQSLVHSNGNTYLHWYLQKPGQSPKLLVYKVSNRFSGVPDRFSGSGSGTDFTLKIIRVEAEDLGVYFCSQSTRIPFTFGSGTKLEMKR
notes: Mouse hybridoma mAb, IgG1 kappa (VH1/VL1); they appear to lack the first N-terminal residues; also called mAb 1D6; Class I mAb
B2: mouse monoclonal antibody 2C1 (antibody, V domains shown)
VH: GPELVKPGASVKISCKTSGYTFTENTIHWVKQSHGKSLEWVGGINPNNGGTNYNQKFKGRAALTVDKSSSTAYMELRSLTSEDSAVYYCARSWDWFAYWGQGTLVTVSA
VL: LSLPVSLGDQASISCRSSQSLVHSNGNTYLHWYLQKPGQSPKLLVYKVSNRFSGVPDRFSGSGSGTDFTLKIIRVEAEDLGVYFCSQSTRIPFTFGSGTKLEMKR
notes: Mouse hybridoma mAb, IgG1 kappa (VH1/VL1), separately isolated hybridoma with the same variable regions as 1D6; also called Class I mAb; anti-N69 mAb
B3: mouse monoclonal antibody 2A8 (antibody, V domains shown)
VH: GPELVKPGASVKISCKTSGYTFTENTIHWVKQSHGKSLEWVGGINPNNGGTNYNQKFKGRAALTVDKSSSTAYMELRSLTSEDSAVYYCARSWDWFAYWGQGTLVTVSA
VL: LSLPVSLGDQASISCRSSQSLVHSNGNTYLHWYLQKPGQSPKLLVYKVSNRFSGVPDRFSGSGSGTDFTLKIIRVEAEDLGVYFCSQSTRIPFTFGSGTKLEMKR
notes: as for B2
B4: mouse monoclonal antibody 2D11 (antibody, IgG1, V domains shown)
VH: GPELVKPGASVKISCKTSGYTFTENTIHWVKQSHGKSLEWVGGINPNNGGTNYNQKFKGRAALTVDKSSSTAYMELRSLTSEDSAVYYCARSWDWFAYWGQGTLVTVSA
VL: LSLPVSLGDQASISCRSSQSLVHSNGNTYLHWYLQKPGQSPKLLVYKVSNRFSGVPDRFSGSGSGTDFTLKIIRVKAEDLGVYFCSQSTRIPFTFGSGTKLEMKR
notes: Mouse hybridoma mAb, IgG1 kappa (VH1/VL2); also called mAb 2D11; Class II mAb
B5: mouse monoclonal antibody 1E11 (antibody, IgG3, V domains shown)
VH: GAELAKPGASVKMSCKASGYTFTTYWMHWVKQRPGQGLEWIGFINPSTGYTEYNQKFKDKATLTADKSSSTAYMQLSSLTSGDSAVYYCARKSFAYWGHGTLVTVSA
VL: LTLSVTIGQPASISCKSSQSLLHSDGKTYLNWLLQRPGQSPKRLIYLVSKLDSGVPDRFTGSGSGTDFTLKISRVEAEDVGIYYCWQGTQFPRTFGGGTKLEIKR
notes: Mouse hybridoma mAb, IgG3 kappa (VH2/VL3); also called mAb 1E11; Class III mAb
B6: mouse monoclonal antibody 3H5 (antibody, IgM, V domains shown)
VH: GGGLVQPKGSLKLSCAASGFTFNTYAMNWVRQAPGKGLEWVARIRSKSNNYATYYADSVKDRFTISRDDSQSMLYLQMNNLKTEDTAMYYCVRHDGVAWFAYWGQGTLVTVSA
VL: LSLPVSLGDQASISCRSSQSIVHSNGNTYLEWYLQKPGQSPKLLIYKVSNRFSGVPDRFSGSGSGTDFTLKISRVEAEDLGVYYCFQGSHVPPTFGAGTKLELKR
notes: Mouse hybridoma mAb, IgM kappa (VH3/VL4); also called mAb 3H5; Class IV mAb
B7: mouse monoclonal antibody 2H3 (antibody, IgM, V domains shown)
VH: GGGLVQPKGSLKLSCAASGFTFNTYAMNWVRQAPGKGLEWVARIRSKSNNYATYYADSVKDRFTISRDDSQSMLYLQMNNLKTEDTAMYYCVRHDGVAWFAYWGQGTLVTVSA
VL: LSLPVSLGDQASISCRSSQSIVHSNGNTYLEWYLQKPGQSPKLLIYKVSNRFSGVPDRFSGSGSGTDFTLKISRVKAEDLGVYYCFQGSHVPPTFGAGTKLELKR
notes: Mouse hybridoma mAb, IgM kappa (VH3/VL5); also called mAb 2H3; Class V mAb
B8: mouse monoclonal antibody 2D9 (antibody, IgM, V domains shown)
VH: GGGLVQPKGSLKLSCAASGFTFNTYAMNWVRQAPGKGLEWVARIRSKSNNYATYYADSVKDRFTISRDDSQSMLYLQMNNLKTEDTAMYYCVRHDGVAWFAYWGQGTLVTVSA
VL: LSLPVSLGDQASISCKSSQSIVHSNGNTYLKWYLQKPGQSPKLLIYKVSNRFSGVPDRFSGSGSGTDFTLKISRVKAEDLGVYYCFQGSHVPPTFGAGTKLELKR
notes: Mouse hybridoma mAb, IgM kappa (VH3/VL7); also called mAb 2D9; Class VII mAb
B9: mouse monoclonal antibody 4F5 (antibody, IgM, V domains shown)
VH: GGGLVQPKGSLKLSCAASGFTFNTYAMNWVRQAPGKGLEWVARIRSKSNNYATYYADSVKDRFTISRDDSQSMLYLQMNNLKTEDTAMYYCVRHDGVAWFAYWGQGTLVTVSA
VL: LSLPVSLGDQASISCKSSQSIVHSNGNTYLEWYLQKPGQSPKLLIYKVSNRFSGVPDRFSGSGSGTDFTLKISRVKAEDLGVYYCFQGSHVPPTFGAGTKLELKR
notes: Mouse hybridoma mAb, IgM kappa (VH3/VL6); also called mAb 4F5; Class VI mAb

The first test addresses T1, N-terminal fragment of human cardiac …. In words: indirect ELISA titration, antigen immobilised on plate. The method, then:
(§1) Purified HcTnT-N69 (also called N69) having the amino acid sequences shown in SEQ ID NO:1 or intact human cTnT antigen was immobilized on microtiter plates. After washing and blocking the plastic surface with 1% BSA and 0.05% Tween-20, the immobilized antigen was incubated with serial dilutions of the anti-N69 mAbs. Following washes to remove the unbound antibody, the plates were further incubated with HRP-conjugated second antibody followed by washes and H₂O₂-ABTS substrate reaction. A₄₁₅ₙₘ curve for each assay well was recorded by an automated microplate reader.
In the case of B1, the binding result is reported as “binds”. Still for that read-out and setting: as for B2, the entry is “binds”.

For B3, the binding result was “binds”. B4: the binding result is “binds”.

On to B5, for which the binding result is “binds”. For the molecule B6, the binding result was “binds”.

The next test shares this target. In words: assay not named in the sentence (ELISA titration per the Examples). The method, then: as §1
Background: In an ELISA, binding on a coated surface is turned into a signal by an enzyme label.
With B7, the binding result is listed as “binds”.

On to B8, for which the binding result is on record as “binds”.

For B9, the binding result is listed as “binds”.
